Like-named read-outs stand apart in the source and are kept apart here.

One assay concerns the target T1, human CXCR3 (human, UniProt P49682 1-368).
T1 construct: whole, on cells
T1 sequence (looked up): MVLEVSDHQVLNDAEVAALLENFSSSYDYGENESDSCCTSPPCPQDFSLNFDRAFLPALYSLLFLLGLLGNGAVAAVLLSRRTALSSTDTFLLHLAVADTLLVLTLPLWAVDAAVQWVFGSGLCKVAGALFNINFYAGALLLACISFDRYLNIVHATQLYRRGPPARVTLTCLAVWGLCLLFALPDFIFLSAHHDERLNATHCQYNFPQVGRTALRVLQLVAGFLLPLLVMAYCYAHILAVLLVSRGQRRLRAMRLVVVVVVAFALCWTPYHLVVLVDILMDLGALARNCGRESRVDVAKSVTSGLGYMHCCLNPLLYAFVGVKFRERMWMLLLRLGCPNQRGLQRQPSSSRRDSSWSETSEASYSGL
Put plainly: FACS on human CXCR3 transfected HEK293 cells, parental cells as control. The procedure: (§1) CXCR4 is a GPCR, with few close homologues in the family of human GPCRs. Among these are CXCR3 and CCR4. […] The samples were analyzed on a FACS Caliber cytometer.

The target in assay [1] is T2, human CXCR4 (human, UniProt P61073 1-352). Put plainly: cell-based or functional assay.
Assay [2] has as its target T3, cynomolgus monkey CXCR4 (cynomolgus monkey, UniProt Q28474 1-352).
T3 construct: whole, on cells; On transiently transfected HEK293T cells or endogenous on the cynomolgus T-cell line HSC-F; also called Cynomolgus CXCR4
As to the kind of experiment: FMAT, hybridoma supernatant on HEK293T cells transiently overexpressing full-length cynomolgus CXCR4. On the procedure: (§2) Supernatants collected from harvested cells were tested to assess the ability of the secreted antibodies to bind to HEK293T cells transiently overexpressing either full-length human, murine or cynomolgus monkey CXCR4. […] Cells diluted in PBS containing 2% FBS were seeded at a density of 3000 expressing and 15000 mock transfected cells per well in 384 well plates (Corning Costar, catalog #3712). Immediately after plating, 15 or 20 μl/well of hybridoma supernatants and 10 μl/well of secondary antibody (Goat anti-human IgG Fc Cy5, final concentration 750 ng/ml) were added and plates incubated for 3 hours at room temperature prior to reading the fluorescence on the FMAT 8200 instrument (Applied Biosystems). The product of number of positive events and fluorescence intensity was used as a measure of binding strength.

Assay [3] concerns the target T2, human CXCR4. Put plainly: FMAT, hybridoma supernatant on HEK293T cells transiently overexpressing full-length human CXCR4. The procedure: as §2
Assay [4] concerns the target T2, human CXCR4. Put plainly: cell-based or functional assay. This is another data set of the same source.
Another assay concerns the target T4, mouse CXCR4 (mouse, UniProt P70658 1-359).
T4 construct: Full-length murine CXCR4 on transiently transfected HEK293T cells; also native on mouse lymphocytes and the EL4 line; also called murine CXCR4
Put plainly: FMAT, hybridoma supernatant on HEK293T cells transiently overexpressing full-length mouse CXCR4. The procedure: as §2

In assay [5] the target is T2, human CXCR4. As to the kind of experiment: FACS, hybridoma supernatant pre-incubated with human CXCR4 transfected HEK293T cells, competitor Alexa-647 SDF-1. (In general: In flow cytometry, cells or beads pass a laser one at a time.)
Assay [6] concerns the target T2, human CXCR4. Put plainly: FACS binding under antigen limiting conditions on Jurkat cells, Kinexa software fit. The procedure: FACS binding under antigen limiting conditions was utilized to estimate the affinities of antibodies to the CXCR4 receptor. Jurkat cells were washed in RPMI1640 medium and plated at 50,000 cells per well in duplicate for incubation with 4-fold dilution series of antibody in duplicate, ranging between 150,000 and 0.143 pM. Incubation was carried out at 4° C. overnight, followed by wash step (3 times in PBS) and staining with Goat anti-human Fc−Cy5 secondary antibody+5 μg/mL 7-Amino-Actinomycin (7AAD) for 40 minutes at 4° C. Samples were analyzed on a FACSCaliber following another round of 3 washes in PBS. […] The negative geo mean was entered into Kinexa analysis software as an estimate of antibody “depletion” under limited antigen conditions, and the equilibrium dissociation constant (KD) was estimated from the curve fit.

Another assay deals with T5, CCR4 (human, UniProt P51679 1-360).
T5 construct: whole, on cells
T5 sequence (looked up): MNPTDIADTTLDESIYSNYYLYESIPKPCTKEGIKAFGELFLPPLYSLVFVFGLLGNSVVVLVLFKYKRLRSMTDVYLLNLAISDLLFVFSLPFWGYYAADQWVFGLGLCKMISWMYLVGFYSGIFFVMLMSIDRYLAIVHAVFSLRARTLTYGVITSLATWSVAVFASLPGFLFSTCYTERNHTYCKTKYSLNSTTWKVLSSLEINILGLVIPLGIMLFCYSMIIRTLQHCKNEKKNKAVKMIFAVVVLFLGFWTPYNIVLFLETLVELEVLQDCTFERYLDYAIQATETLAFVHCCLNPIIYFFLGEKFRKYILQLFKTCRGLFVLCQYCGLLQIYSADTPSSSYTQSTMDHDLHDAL
Put plainly: FACS on CCR4 transfected CHO cells, parental cells as control. On the procedure:
as §1

Assay [7] deals with T3, cynomolgus monkey CXCR4. Put plainly: FACS binding titration on HSC-F cells (cyno CXCR4), Kinexa model fit.
Assay [8] has as its target T2, human CXCR4. Put plainly: cell-based or functional assay. This is another data set of the same source.
The target of assay [9] is T2, human CXCR4. As to the kind of experiment: FACS binding titration on Namalwa cells (human CXCR4), Kinexa model fit.
In assay [10] the target is T2, human CXCR4. As to the kind of experiment: cell-based or functional assay. The source holds these as a separate data set.

T3 sequence (Q28474 whole entry): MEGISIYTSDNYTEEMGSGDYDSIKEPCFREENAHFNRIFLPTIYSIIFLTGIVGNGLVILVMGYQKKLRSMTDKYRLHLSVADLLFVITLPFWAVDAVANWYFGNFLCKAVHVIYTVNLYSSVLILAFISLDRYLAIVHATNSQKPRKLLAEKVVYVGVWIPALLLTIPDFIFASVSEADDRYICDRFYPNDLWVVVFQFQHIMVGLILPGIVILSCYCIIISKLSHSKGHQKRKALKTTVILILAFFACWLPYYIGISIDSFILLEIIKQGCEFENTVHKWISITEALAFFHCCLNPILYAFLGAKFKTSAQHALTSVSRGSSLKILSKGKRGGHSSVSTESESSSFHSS
T2 sequence (P61073 whole entry): as the sequence (Q28474 whole entry) above, with I24M, H35N, R38K, K146R, S176N counted along it
T4 sequence (P70658 whole entry): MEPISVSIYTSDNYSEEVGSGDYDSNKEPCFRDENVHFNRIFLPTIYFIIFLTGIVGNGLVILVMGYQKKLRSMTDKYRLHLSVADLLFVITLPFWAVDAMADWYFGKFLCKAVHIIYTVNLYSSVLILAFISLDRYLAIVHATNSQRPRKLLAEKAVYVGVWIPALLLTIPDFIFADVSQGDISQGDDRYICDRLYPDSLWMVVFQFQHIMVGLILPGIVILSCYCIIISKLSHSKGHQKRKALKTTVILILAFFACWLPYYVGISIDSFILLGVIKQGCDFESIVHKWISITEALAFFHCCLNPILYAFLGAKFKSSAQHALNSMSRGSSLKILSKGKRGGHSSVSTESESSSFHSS

B1: 4C1 (antibody, V domains shown)
VH: QVQLVESGGGVVQPGRSLRLSCAASGFTFSSYGMHWVRQAPGKGLEWVAVISYDGSNKYYADSVKGRFTISRDNSKNTLYLQMNSLRAEDTAVYYCTRGGLAARRNYYYSYGMDVWGQGTTVTVSS
VL: DIQMTQSPSSLSASVGDRVTITCRASQDIRNDLGWYQQKPGKAPKRLIYAASSLQSGVPSRFSGSGSGTQFTLTISSLQPEDFATYYCLQHNSYPLTFGGGTKVQIK
notes: Fully human monoclonal antibody from XenoMouse hybridoma (strains XMG2 IgG2 or XMG4 IgG4, kappa/lambda); Tested as hybridoma supernatant or purified antibody; also called mAb 4C1; Mab4C1
In the case of B1, the binding result in the assay with human CXCR3 is “no binding (tested: 10 and 100 ug/ml)”. Further, in the assay with human CXCR4 [1], the “% Inhibition 1 hr (Jurkat chemotaxis)” value is 81.3% and the “% Inhibition 24 hr (Jurkat chemotaxis)” value is -27%. In the assay with cynomolgus monkey CXCR4 [2], this molecule yielded a Count of 46, an FL1 of 6360 and an FL1 x count of 293000. In addition, in the assay with human CXCR4 [3], the Count was determined as 183, the FL1 is 8330 and the FL1 x count is 1.52e+06. Also, in the assay with human CXCR4 [4], the “Jurkat chemotaxis inhibition IC50 pM” value was found to be 1220 pM and the “Jurkat chemotaxis inhibition IC50” value was found to be 0.182 µg/mL. In the assay with mouse CXCR4, this molecule came in with a Count of 5, an FL1 of 1490 and an FL1 x count of 7440. For the same molecule, the “% Inhibition of SDF-1 binding” value in the assay with human CXCR4 [5] worked out at 35%. This molecule also had a Kd with human CXCR4 [6] of 2.2 nM. Also, in the assay with CCR4, the binding result was “no binding (tested: 10 and 100 ug/ml)”.

B2: 7C8 (antibody, V domains shown)
VH: QVQLVESGGGVVQPGRSLRLSCAASGFTFSSYGMHWVRQAPGKGLEWVAVIWYDGTYKYYADSVRGRFTISRDNSKNTLYLQMNSLRAEDTAVYYCARGPLLRYFDWLSDYWGQGTLVTVSS
VL: DIQMTQSPSSLSASVGDRVTITCRASQGIRNDLGWYQQKPGKAPKRLIYAATSLQSGVPSRFSGSGSGTEFTLTISSLQPEDFATYYCLQHNNYPRTFGGGTKVEIK
notes: Fully human monoclonal antibody from XenoMouse hybridoma
Take B2: the binding result with human CXCR3 is “no binding (tested: 10 and 100 ug/ml)”. Also, in the assay with human CXCR4 [1], the “% Inhibition 1 hr (Jurkat chemotaxis)” value worked out at 48.3% and the “% Inhibition 24 hr (Jurkat chemotaxis)” value is -34%. Also, in the assay with cynomolgus monkey CXCR4 [2], the Count turned out to be 137, the FL1 is 4680 and the FL1 x count turned out to be 642000. In the assay with human CXCR4 [3], this molecule showed a Count of 184, an FL1 of 7940 and an FL1 x count of 1.46e+06. In the assay with human CXCR4 [4], the “Jurkat chemotaxis inhibition IC50 pM” value amounted to 1570 pM and the “Jurkat chemotaxis inhibition IC50” value was 0.236 µg/mL. In the assay with mouse CXCR4, this molecule had a Count of 9, an FL1 of 2400 and an FL1 x count of 21600. In addition, the “% Inhibition of SDF-1 binding” value with human CXCR4 [5] stood at 75%. For the same molecule, the Kd in the assay with human CXCR4 [6] was determined as 0.363 nM. Moreover, the binding result with CCR4 is “no binding (tested: 10 and 100 ug/ml)”.

B3: 2A4 (antibody, V domains shown)
VH: QVQLVESGGGVVQPGRSLRLSCAASGFTFSSYGMHWVRQAPGKGLEWVAVISYDGSNKYYADSVKGRFTISRDNSKNTLYLQMNSLRAEDTAVYYCTRGGLAARRNYYYSYGTDVWGQGTTVTVSS
VL: DIQMTQSPSSLSASVGDRVTITCRASQDIRNDLGWYQQKPGKAPTRLIYAASSLQSGVPSRFSGSGSGTQFTLTISSLQPEDFATYYCLQHNSYPLTFGGGTKVQIK
notes: Fully human monoclonal antibody from XenoMouse hybridoma; also called mAb 2A4; Mab2A4
B3: the binding result with human CXCR3 is “no binding (tested: 10 and 100 ug/ml)”. Moreover, in the assay with human CXCR4 [1], the “% Inhibition 1 hr (Jurkat chemotaxis)” value stood at 98% and the “% Inhibition 24 hr (Jurkat chemotaxis)” value was 76%. Moreover, in the assay with cynomolgus monkey CXCR4 [2], the Count amounted to 89, the FL1 was 6740 and the FL1 x count was determined as 600000. In the assay with human CXCR4 [3], this molecule came in with a Count of 89, an FL1 of 8370 and an FL1 x count of 745000. In the assay with human CXCR4 [4], the “Jurkat chemotaxis inhibition IC50 pM” value is 383 pM and the “Jurkat chemotaxis inhibition IC50” value amounted to 0.0574 µg/mL. In the assay with mouse CXCR4, this molecule registered a Count of 3, an FL1 of 954 and an FL1 x count of 2860. Moreover, in the assay with human CXCR4 [5], the “% Inhibition of SDF-1 binding” value is 42%. In the assay with human CXCR4 [6], this molecule registered a Kd of 0.82 nM. Moreover, the binding result with CCR4 is “no binding (tested: 10 and 100 ug/ml)”.

B4: 6C7 IgG1TM (antibody, V domains shown)
VH: QVQLVESGGGVVQPGRSLRLSCAASGFTFSNYVMHWVRQAPGKGLEWVAVIWYDGSNKYYADSVKGRFTISRDNSKNTLSLQMNSLRAEDTAVYYCERGEGYYGSGSRYRGYYYGMDVWGQGTTVTVSS
VL: DIQMTQSPSSLSASVGDRVTITCRASQGIRTDLGWYQQKPGKAPKRLIYAASSLQSGVPSRFSGSGSGTEFTLTISSLQPEDFATYYCLQHNSYPRTFGQGTKVEIKR
notes: 6C7 variable domains on a variant IgG1 Fc (IgG1 TM); also called 6C7-TM; Anti-CXCR4 IgG1 TM
Regarding B4, the results for the dissociation constant Kd in the assay with cynomolgus monkey CXCR4 [7] and with human CXCR4 [9] were 0.221 nM and 0.768 nM, respectively. Further, the “Inhibition of pMAPK Signaling IC50 (nM), Jurkat, ELISA” value in the assay with human CXCR4 [8] turned out to be 3.1 nM. For the same molecule, the “Jurkat chemotaxis inhibition IC50” value with human CXCR4 [10] came to 0.193 nM.

B5: 5E1 (antibody, V domains shown)
VH: EVQLLESGGGLVQPGGSLRLSCAASGFTFSSFAMNWVRQAPGKGLEWVSAISGSGGNIYYADSVRGRFTISRDNSKNTLYLQMNSLRAEDTAVYYCAKVDRNLGYYHGMDVWGQGTTVTVSS
VL: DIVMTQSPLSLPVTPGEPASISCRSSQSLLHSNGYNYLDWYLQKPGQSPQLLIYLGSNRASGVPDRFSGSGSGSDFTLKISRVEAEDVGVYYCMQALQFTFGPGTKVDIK
notes: as for B2
For the molecule B5, in the assay with human CXCR4 [1], the “% Inhibition 1 hr (Jurkat chemotaxis)” value was determined as 70% and the “% Inhibition 24 hr (Jurkat chemotaxis)” value is -20%. In the assay with cynomolgus monkey CXCR4 [2], the Count came to 130, the FL1 amounted to 12900 and the FL1 x count stood at 1.68e+06. Moreover, in the assay with human CXCR4 [3], the Count amounted to 213, the FL1 is 7750 and the FL1 x count turned out to be 1.65e+06. Also, in the assay with human CXCR4 [4], the “Jurkat chemotaxis inhibition IC50 pM” value amounted to 14200 pM and the “Jurkat chemotaxis inhibition IC50” value came to 2.12 µg/mL. Besides, the “% Inhibition of SDF-1 binding” value with human CXCR4 [5] is 1%. Moreover, the affinity with human CXCR4 [6], expressed as Kd, was 0.045 nM.

For orientation: Kd means the concentration at which binding is half-saturated.

These data come from US20140314784A1 (MEDLMMUNE, published 2014).
